Laboratory results: patent US20190382481A1 (Janssen / Centocor, published 2019)
Positions count from the first letter of the chain named. In names and notes the source's numbering stands.

Experiments:
human CD33 [1] = target: T1, human CD33 (human, UniProt P20138 18-364); test: cell-based or functional assay
Human CD33-C2-HSA [2] = target: T2, Human CD33-C2-HSA (human); test: IBIS SPRi off-rate screen
T2 construct: C2 domain of human CD33 fused to HSA; also called C33W4; huCD33-C2-HSA

Human CD33-C2-HSA [3] = target: T3, Human CD33-C2-HSA (human); test: SPRi off-rate screen, domain constructs
T3 construct: C2 domain of human CD33 fused to HSA (C58S) and six-histidine tag; also called C33W4; huCD33-C2-HSA

human CD33 [4] = target: T1, human CD33; test: cell-based or functional assay; remark: listed apart in the source
cyno CD33 = cyno CD33 (cynomolgus monkey); test: cell-based or functional assay
cyno CD33 (cynomolgus monkey), sequence (chain, as listed by the source limits assumed): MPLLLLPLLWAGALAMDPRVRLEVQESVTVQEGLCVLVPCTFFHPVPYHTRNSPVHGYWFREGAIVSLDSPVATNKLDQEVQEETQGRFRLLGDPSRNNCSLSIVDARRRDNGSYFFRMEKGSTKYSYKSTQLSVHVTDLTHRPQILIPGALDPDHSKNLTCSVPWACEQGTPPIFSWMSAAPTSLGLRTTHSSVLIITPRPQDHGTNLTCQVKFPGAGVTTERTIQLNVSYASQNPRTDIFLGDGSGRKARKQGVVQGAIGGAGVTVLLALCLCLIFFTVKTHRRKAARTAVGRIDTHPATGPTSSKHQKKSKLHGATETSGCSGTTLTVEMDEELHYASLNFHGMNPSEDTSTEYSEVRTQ

human CD33 [5] = target: T1, human CD33; test: cell-based or functional assay; remark: listed apart in the source
human CD33 [6] = target: T1, human CD33; test: cell-based or functional assay; remark: listed apart in the source
cyno monkey rCD3e = target: T4, cyno monkey rCD3e (cyno monkey, UniProt Q95LI5 22-117, limits assumed); test: method not stated
T4 construct: also called cyno recombinant CD3 epsilon
T4 sequence (looked up): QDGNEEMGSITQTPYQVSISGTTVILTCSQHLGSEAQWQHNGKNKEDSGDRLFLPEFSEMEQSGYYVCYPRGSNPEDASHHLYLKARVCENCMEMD

[7] = target: T5, human recombinant (r)CD33 (human, UniProt P20138 18-259); test: method not stated
T5 construct: also called human rCD33
T5 sequence (P20138 18-259 limits assumed): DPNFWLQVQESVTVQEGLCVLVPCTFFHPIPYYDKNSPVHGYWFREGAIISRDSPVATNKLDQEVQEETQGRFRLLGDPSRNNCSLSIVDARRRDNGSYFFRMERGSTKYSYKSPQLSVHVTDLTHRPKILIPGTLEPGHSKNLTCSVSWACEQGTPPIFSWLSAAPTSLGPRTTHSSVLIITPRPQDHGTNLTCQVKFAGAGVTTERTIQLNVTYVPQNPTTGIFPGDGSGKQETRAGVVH

[8] = target: cynomologous (cyno) rCD33 (cyno); test: method not stated
cynomologous (cyno) rCD33 (cyno), sequence (chain, as listed by the source limits assumed): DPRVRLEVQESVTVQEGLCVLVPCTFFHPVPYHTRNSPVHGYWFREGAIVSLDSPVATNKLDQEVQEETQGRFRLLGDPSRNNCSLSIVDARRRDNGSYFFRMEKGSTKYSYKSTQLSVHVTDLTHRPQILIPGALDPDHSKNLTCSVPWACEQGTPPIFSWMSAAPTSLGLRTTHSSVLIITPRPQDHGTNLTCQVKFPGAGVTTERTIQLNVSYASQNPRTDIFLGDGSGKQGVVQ

human rCD3e = target: T6, human rCD3e (human, UniProt P07766 23-126); test: method not stated
T6 construct: also called human recombinant CD3 epsilon
T6 sequence (P07766 23-126 limits assumed): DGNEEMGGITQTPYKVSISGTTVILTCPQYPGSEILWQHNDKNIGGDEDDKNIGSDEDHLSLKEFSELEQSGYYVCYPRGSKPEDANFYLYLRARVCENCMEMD

[9] = target: CD33 on human CD33 expressing AML cell lines and primary human cells (endogenous) (human, UniProt P20138 18-364); test: cell-based or functional assay
CD33 on human CD33 expressing AML cell lines and primary human cells (endogenous), sequence (P20138 18-364 limits assumed): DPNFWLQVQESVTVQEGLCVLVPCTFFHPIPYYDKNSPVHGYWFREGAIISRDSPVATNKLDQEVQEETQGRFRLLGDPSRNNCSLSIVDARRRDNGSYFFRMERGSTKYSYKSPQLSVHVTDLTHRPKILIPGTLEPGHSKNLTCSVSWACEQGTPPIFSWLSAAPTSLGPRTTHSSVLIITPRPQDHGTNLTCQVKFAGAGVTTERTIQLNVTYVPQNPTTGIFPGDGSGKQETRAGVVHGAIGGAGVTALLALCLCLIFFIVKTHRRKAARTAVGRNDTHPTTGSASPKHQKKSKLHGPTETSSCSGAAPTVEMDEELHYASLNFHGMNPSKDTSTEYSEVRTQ

Human CD33-V-HSA [10] = target: T7, Human CD33-V-HSA (human); test: IBIS SPRi off-rate screen
T7 construct: V domain of human CD33 fused to HSA; also called C33W3; huCD33-V-HSA

Human CD33-V-HSA [11] = target: T8, Human CD33-V-HSA (human); test: SPRi off-rate screen, domain constructs
T8 construct: V domain of human CD33 fused to HSA (C58S) and six-histidine tag; also called C33W3; huCD33-V-HSA

T1 sequence (P20138 18-364 limits assumed): as above

B1: C33B836 (antibody, human IgG4 S228P, lambda, F234A L235A)
heavy: not shown
light: QSALTQPASVSGSPGQSITISCTGTSSDVGDYNYVSWYQQHPGKVPKLMIYDVSNRPSGVSNRFSGSMSGNTASLTISGLQAEDEADYYCSSYSSSSALEVFGGGTKLTVLGQPKAAPSVTLFPPSSEELQANKATLVCLISDFYPGAVTVAWKADSSPVKAGVETTTPSKQSNNKYAASSYLSLTPEQWKSHRSYSCQVTHEGSTVEKTVAPTECS
B1 was tested, and the “EC50 (nM), CD33 internalization assay (Protein A-MMAF cell viability, MOLM13)” value (shortened to “EC50 (nM), CD33 internalization assay”) (human CD33 [1]) was 0.04 nM.

B2: C33B836 (antibody, human IgG4 S228P, lambda, F234A L235A)
heavy: not shown
light: B1 light
notes: huIgG4 PAA; HC C33H80, LC C33L73 (same V region as C33B48); also called C33F53
B2: no binding (Human CD33-C2-HSA [2]).

B3: C33B836 (antibody, human IgG4 S228P, lambda, F234A L235A)
heavy: not shown
light: B1 light
notes: huIgG4 PAA; OMNIRat campaign; also called C33H80/C33L73
B3: no binding (Human CD33-C2-HSA [3]).

B4: C3CB189 (bispecific antibody, human IgG4 S228P, kappa, lambda, F234A L235A)
heavy 1: not shown
light 1: not shown
heavy 2: QVQLQQSGPRLVRPSQTLSLTCAISGDSVFNNNAAWSWIRQSPSRGLEWLGRTYYRSKWLYDYAVSVKSRITVNPDTSRNQFTLQLNSVTPEDTALYYCARGYSSSFDYWGQGTLVTVSSASTKGPSVFPLAPCSRSTSESTAALGCLVKDYFPEPVTVSWNSGALTSGVHTFPAVLQSSGLYSLSSVVTVPSSSLGTKTYTCNVDHKPSNTKVDKRVESKYGPPCPPCPAPEAAGGPSVFLFPPKPKDTLMISRTPEVTCVVVDVSQEDPEVQFNWYVDGVEVHNAKTKPREEQFNSTYRVVSVLTVLHQDWLNGKEYKCKVSNKGLPSSIEKTISKAKGQPREPQVYTLPPSQEEMTKNQVSLTCLVKGFYPSDIAVEWESNGQPENNYKTTPPVLDSDGSFLLYSKLTVDKSRWQEGNVFSCSVMHEALHNHYTQKSLSLSLGK
light 2: QSALTQPASVSGSPGQSITISCTGTSSNIGTYKFVSWYQQHPDKAPKVLLYEVSKRPSGVSSRFSGSKSGNTASLTISGLQAEDQADYHCVSYAGSGTLLFGGGTKLTVLGQPKAAPSVTLFPPSSEELQANKATLVCLISDFYPGAVTVAWKADSSPVKAGVETTTPSKQSNNKYAASSYLSLTPEQWKSHRSYSCQVTHEGSTVEKTVAPTECS
For B4, the “Primary AML Cell Killing EC50 (nM), ex vivo AML patient whole blood” value (human CD33 [4]) was 0.578 nM, the “CD33^+ CD14^+ Killing EC50 (nM), ex vivo cynomolgus whole blood” value (cyno CD33) was 3.6 nM and the “T cell activation EC50 (nM), ex vivo cynomolgus whole blood” value (cyno CD33) was 0.02 nM. The “CD33^+ CD14^+ Killing EC50 (nM), ex vivo human whole blood” value (human CD33 [5]) was 1.16 nM, the “MOLM13 Killing EC50 (nM), ex vivo human whole blood” value (human CD33 [5]) was 0.168 nM and the “IFN-gamma release, Median EC50” value (human CD33 [6]) was 0.16 nM. The “IL-1beta release, Median EC50” value (human CD33 [6]) was 0.045 nM, the “IL-2 release, Median EC50” value (human CD33 [6]) was 0.346 nM and the “IL-4 release, Median EC50” value (human CD33 [6]) was 0.078 nM. For the same binder, the “IL-8 release, Median EC50” value (human CD33 [6]) was 0.042 nM, the “IL-10 release, Median EC50” value (human CD33 [6]) was 0.123 nM and the “IL-13 release, Median EC50” value (human CD33 [6]) was 0.034 nM. The “TNF-alpha release, Median EC50” value (human CD33 [6]) was 0.208 nM.

B5: C3CB189 (bispecific antibody, human IgG4 S228P, kappa, lambda, F234A L235A)
heavy 1: not shown
light 1: not shown
heavy 2: B4 heavy 2
light 2: B4 light 2
notes: Fully human IgG4-PAA bispecific made by Fab-arm exchange; CD33 arm C33B904 (C33H252/C33L118), CD3 arm CD3B376 (CD3H219/CD3L150; F405L, R409K); also called C33B904 × CD3B376
B5 gave a Kd (cyno monkey rCD3e) of 43.8 nM, a Kd [7] of 0.00089 nM and a Kd [8] of 0.363 nM. For the same binder, the Kd (human rCD3e) was 151 nM, the “T cell activation (CD25) in human whole blood with Kasumi-1, median EC50” value [9] was 0.085 nM and the “T cell activation (CD25) in human whole blood with MOLM-13, median EC50” value [9] was 0.037 nM. The “T cell activation (CD25) with KG-1 target cells, median EC50” value [9] was 0.0664 nM, the “T cell activation (CD25) with Kasumi-1 target cells, median EC50” value [9] was 0.0432 nM and the “T cell activation (CD25) with MOLM-13 target cells, median EC50” value [9] was 0.0283 nM. The “T cell activation (CD25) with OCI-AML3 target cells, median EC50” value [9] was 0.05 nM, the “T cell-mediated cytotoxicity of KG-1, median EC50, 6 donors, 48 h” value [9] was 0.168 nM and the “T cell-mediated cytotoxicity of Kasumi-1, median EC50, 6 donors, 48 h” value [9] was 0.05 nM. For the same binder, the “T cell-mediated cytotoxicity of Kasumi-1 spiked in human whole blood, median EC50, 48 h” value [9] was 0.124 nM, the “T cell-mediated cytotoxicity of MOLM-13, median EC50, 6 donors, 48 h” value [9] was 0.131 nM and the “T cell-mediated cytotoxicity of MOLM-13 spiked in human whole blood, median EC50, 48 h” value [9] was 0.111 nM. For the same binder, the “T cell-mediated cytotoxicity of OCI-AML3, median EC50, 6 donors, 48 h” value [9] was 0.183 nM and the “ex vivo cytotoxicity of CD33+ blasts in AML patient whole blood, median EC50” value [9] was 0.365 nM.

B6: C33B937 (antibody, human IgG4 S228P, lambda, F234A L235A, V domains shown)
VH: QVQLVESGGGVVQPGRSLRLSCVASGFTFSSYGMHWVRQAPGKGLEWVAVISYDGSNKYYADSVKGRFTISRDNSKNTLYLQMNSLRAEGTAVYYCAKDFRSFDWLPPDSASYHGMDVWGQGTTVTVSS
VL: SYELTQPPSVSVSPGQTASITCSGDKLGDKYASWYQQKPGQSPVLVIYQDGKRPSGIPERFSGSNFGNKATLTISGTQAMDEADYYCQAWDRNTVVFGGGTKLTVLG
B6 was tested, and the “EC50 (nM), CD33 internalization assay” value (human CD33 [1]) was 1.92 nM.

B7: C33B782 (antibody, human IgG4 S228P, lambda, F234A L235A)
heavy: not shown
light: SYELTQPPSVSVSPGQTASITCSGNKLGAKFASWYQQKPGQSPVLVIYQDNKRPSGIPERFSGSNSGNTATLTISGTQAVDEADYYCQAWDSSTVVFGGGTKLTVLGQPKAAPSVTLFPPSSEELQANKATLVCLISDFYPGAVTVAWKADSSPVKAGVETTTPSKQSNNKYAASSYLSLTPEQWKSHRSYSCQVTHEGSTVEKTVAPTECS
With B7 the “EC50 (nM), CD33 internalization assay” value (human CD33 [1]) was 0.88 nM.

B8: C33B778 (antibody, human IgG4 S228P, lambda, F234A L235A)
heavy: not shown
light: B7 light with N25D, A29D, F31Y, S33C, N51G, S66F, T69K, V80M, S92R, S93N
notes: huIgG4 PAA; HC C33H66, LC C33L60 (same V region as C33B73); also called C33F78
B8: no binding (Human CD33-V-HSA [10]).

B9: C33B782 (antibody, human IgG4 S228P, lambda, F234A L235A)
heavy: not shown
light: B7 light
notes: huIgG4 PAA; HC C33H72, LC C33L40 (same V region as C33B77); also called C33F82
B9: no binding (Human CD33-C2-HSA [2]); no binding (Human CD33-V-HSA [10]).

B10: C33B782 (antibody, human IgG4 S228P, lambda, F234A L235A)
heavy: not shown
light: B7 light
notes: huIgG4 PAA; OMNIRat campaign; also called C33H72/C33L40
B10: no binding (Human CD33-V-HSA [11]); no binding (Human CD33-C2-HSA [3]).

B11: C33B778 (antibody, human IgG4 S228P, lambda, F234A L235A)
heavy: not shown
light: B7 light with N25D, A29D, F31Y, S33C, N51G, S66F, T69K, V80M, S92R, S93N
notes: huIgG4 PAA; OMNIRat campaign; also called C33H66/C33L60
B11: no binding (Human CD33-V-HSA [11]).

B12: C33B792 (antibody, human IgG4 S228P, lambda, F234A L235A)
heavy: not shown
light: B7 light with N25D, A29N, F31Y, N51T, F61V, V80M, Y86H
notes: huIgG4 PAA; HC C33H87, LC C33L35 (same V region as C33B87); also called C33F92
B12: no binding (Human CD33-C2-HSA [2]); no binding (Human CD33-V-HSA [10]).

B13: C33B792 (antibody, human IgG4 S228P, lambda, F234A L235A)
heavy: not shown
light: B7 light with N25D, A29N, F31Y, N51T, F61V, V80M, Y86H
notes: huIgG4 PAA; OMNIRat campaign; also called C33H87/C33L35
B13: no binding (Human CD33-V-HSA [11]); no binding (Human CD33-C2-HSA [3]).
